PMC6006506
No end group written: not given here. OP = not defined here

Target: monoclonal antibody depY (mouse)
Experiment: SPR

Kd [µM] | Binder
0.36 | PPYRM-{OP} (reading uncertain; also: printed as PPYRM-OP) [PPYRM-OP]
0.012 | LYGLPR-{OP} (reading uncertain; also: printed as LYGLPR-OP) [LYGLPR-OP]
